In patent publication US20190085055A1:
One block for each substance: values may come before it.

Columns and labels:
[1] = target: D3H44 light chain Q124E_Q160E_T178D; test: LCCA: H1 co-expressed with L1 and L2, SPR read-out of light chain tags; competing chain L2
[2] = target: D3H44 light chain Q124E_Q160E_T178D; test: LCCA (SPR), competitor L2 Q160K_T178R
[3] = target: D3H44 light chain Q160K_T178R (Table 8); test: LCCA (SPR), competitor L1 Q124E_Q160E_T178D
[4] = target: D3H44 light chain Q160K_T178R (Table 8); test: LCCA: H1 co-expressed with L1 and L2, SPR read-out of light chain tags; competing chain L1
[5] = target: D3H44 light chain Q160K_T178R (Table 8); test: LCCA: H2 co-expressed with L1 and L2, SPR read-out of light chain tags; competing chain L1
[6] = target: D3H44 light chain Q124E_Q160E_T178D; test: LCCA: H2 co-expressed with L1 and L2, SPR read-out of light chain tags; competing chain L2
D3H44 light chain Q38R [7] = test: LCCA (SPR), competitor L1 Q38E
D3H44 light chain F98A = test: LCCA (SPR), competitor L1 Q38E
D3H44 light chain Q38R [8] = test: LCCA (SPR), competitor L1 Q38D
D3H44 light chain Q38R [9] = test: LCCA (SPR), competitor L2 Q38D
D3H44 light chain Q38R [10] = test: LCCA: H2 co-expressed with L1 and L2, SPR read-out of light chain tags; competing chain L2

- H1 Readout (H1-L1) [1]: 93
- H1 L1 of H1 L1:H1 L2 (screen) [2]: 86.7
- H1 L1 of H1 L1:H1 L2 (verification) [2]: 97
- H1 L2 of H1 L1:H1 L2 (screen) [3]: 1.4
- H1 L2 of H1 L1:H1 L2 (verification) [3]: 0.9
- H1 Readout (H1-L2) [4]: 1
Substance: D3H44 heavy chain (Fab format) D146G_Q179R

- H2 Readout (H2-L2) [5]: 83
- H2 L1 of H2 L2:H2 L1 (screen) [2]: 7.2
- H2 L1 of H2 L2:H2 L1 (verification) [2]: 20
- H2 L2 of H2 L2:H2 L1 (screen) [3]: 71
- H2 L2 of H2 L2:H2 L1 (verification) [3]: 74.3
- H2 Readout (H2-L1) [6]: 24
Substance: D3H44 heavy chain (Fab format) K145T_Q179D_S188L

- H1 L2 of H1 L1:H1 L2 (screen) (D3H44 light chain Q38R [7]): 22.7
- H1 L2 of H1 L1:H1 L2 (verification) (D3H44 light chain Q38R [7]): 8.4
- H1 L2 of H1 L1:H1 L2 (screen) (D3H44 light chain F98A): 4.3
- H1 L2 of H1 L1:H1 L2 (verification) (D3H44 light chain F98A): 4
- H1 L2 of H1 L1:H1 L2 (screen) (D3H44 light chain Q38R [8]): 10.8
- H2 L1 of H2 L2:H2 L1 (verification) (D3H44 light chain Q38R [9]): 11.1
- H2 Readout (H2-L1) (D3H44 light chain Q38R [10]): 1
Substance: D3H44 heavy chain (Fab format) Q39R
